In patent publication US20030068675, “Position dependent recognition of GNN nucleotide triplets by zinc fingers” (published 2003):
Where a chain is given by its changes, count along the chain named.

Legend:
Assay in all cases: EMSA
Settings in all cases: tags: MBP fusion
ZFP SBS#894 = target: T1, ZFP SBS#894 (synthetic)
T1 chain: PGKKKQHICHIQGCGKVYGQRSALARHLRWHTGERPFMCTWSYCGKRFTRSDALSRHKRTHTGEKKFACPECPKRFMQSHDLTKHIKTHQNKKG
In short: (§1)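 Purified ZFP was titrated against labeled double-stranded target (1 nM or lower, at least 10-fold below expected Kd) carrying the natural binding site with flanks. Binding buffer was 10 mM Tris pH 7.5, 100 mM KCl, 1 mM MgCl2, 0.1 mM ZnCl2, 5 mM DTT, 10% glycerol, 0.02% BSA, with equilibration for at least 45 min. Bound and free target were separated on a 10% polyacrylamide gel.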

ZFP SBS#887 = target: T2, ZFP SBS#887 (synthetic)
T2 chain: T1 chain with H80G, T83R, K84T
In short: as §1

ZFP SBS#891 = target: T3, ZFP SBS#891 (synthetic)
T3 chain: T1 chain with R21S, A23S, A25V, H80G, D81S, T83R, K84T
In short: as §1

ZFP SBS#888 = target: T4, ZFP SBS#888 (synthetic)
T4 chain: T1 chain with R21S, A23S, A25V
In short: as §1

ZFP SBS#828 = target: T5, ZFP SBS#828 (synthetic)
T5 chain: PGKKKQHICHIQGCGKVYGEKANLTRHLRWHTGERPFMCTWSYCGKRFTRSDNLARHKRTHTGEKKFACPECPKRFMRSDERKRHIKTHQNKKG
In short: as §1

ZFP SBS#829 = target: T6, ZFP SBS#829 (synthetic)
T6 chain: T5 chain with E81T, R82L, R84K
In short: as §1

ZFP SBS#673 = ZFP SBS#673 (synthetic)
In short: as §1

ZFP SBS#850 = ZFP SBS#850 (synthetic)
In short: as §1

ZFP SBS#738 = target: T7, ZFP SBS#738 (synthetic)
T7 chain: T5 chain with K21R, A22G, N23T, R26T, N53H, A55S, E81D, R82L, K83R
In short: as §1

ZFP SBS#842 = target: T8, ZFP SBS#842 (synthetic, UniProt P08047)
T8 chain: T5 chain with E20D, K21R, A22S, N23H, N53A, E81N, R82L, K83A
In short: as §1

ZFP SBS#670 = target: T9, ZFP SBS#670 (synthetic)
T9 chain: T1 chain with Q20R, R21S, S22D, A23N, S55A, Q78D, S79R, H80S, D81N, K84R
In short: as §1

ZFP SBS#671 = target: T10, ZFP SBS#671 (synthetic)
T10 chain: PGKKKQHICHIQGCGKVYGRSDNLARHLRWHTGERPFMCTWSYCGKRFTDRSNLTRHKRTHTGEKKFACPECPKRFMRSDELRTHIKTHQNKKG
In short: as §1

ZFP SBS#825 = ZFP SBS#825 (synthetic)
In short: as §1

ZFP SBS#818 = ZFP SBS#818 (synthetic)
In short: as §1

ZFP SBS#667 = target: T11, ZFP SBS#667 (synthetic)
T11 chain: T5 chain with E20D, K21R, A22S, N53E, A55R, R56T, E81N, R82L, K83A
In short: as §1

ZFP SBS#672 = target: T12, ZFP SBS#672 (synthetic)
T12 chain: T10 chain with N23A
In short: as §1

ZFP SBS#836 = target: T13, ZFP SBS#836 (synthetic, UniProt P08047)
T13 chain: T5 chain with K21R, A22G, N23T, T25A, E81H, R82L, K83S
In short: as §1

ZFP SBS#848 = target: T14, ZFP SBS#848 (synthetic, UniProt P08047)
T14 chain: T5 chain with E20D, K21R, A22S, N23S, E81H, R82L, K83S
In short: as §1

ZFP SBS#835 = target: T15, ZFP SBS#835 (synthetic)
T15 chain: T10 chain with S21A, N23T, A25R, D50Q, R51S, S52G, N53H, E81N, R83T
In short: as §1

ZFP SBS#847 = target: T16, ZFP SBS#847 (synthetic)
T16 chain: T10 chain with N23D, A25T, D50Q, R51S, S52G, N53H, E81N, R83T
In short: as §1

ZFP SBS#804 = ZFP SBS#804 (synthetic)
In short: as §1

ZFP SBS#803 = target: T17, ZFP SBS#803 (synthetic)
T17 chain: T1 chain with R21S, A23D, A25Q, A53E, S55Q, H80G, D81S, K84R
In short: as §1

ZFP SBS#662 = ZFP SBS#662 (synthetic, UniProt P08047)
In short: as §1

ZFP SBS#663 = target: T18, ZFP SBS#663 (synthetic)
T18 chain: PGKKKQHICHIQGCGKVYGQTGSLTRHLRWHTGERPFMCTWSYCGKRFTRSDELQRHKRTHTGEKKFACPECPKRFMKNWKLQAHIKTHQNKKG
In short: as §1

ZFP SBS#664 = target: T19, ZFP SBS#664 (synthetic)
T19 chain: T18 chain with S51A, E53T, Q55R, K78A, N79S, W80S, K81R, Q83A, A84T
In short: as §1

ZFP SBS#668 = target: T20, ZFP SBS#668 (synthetic)
T20 chain: T5 chain with K21R, A22G, N23T, T25A, E81A, R82L, K83A
In short: as §1

ZFP SBS#674 = target: T21, ZFP SBS#674 (synthetic)
T21 chain: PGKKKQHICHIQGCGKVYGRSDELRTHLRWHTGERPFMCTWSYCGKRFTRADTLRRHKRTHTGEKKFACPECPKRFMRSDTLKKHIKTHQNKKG
In short: as §1

ZFP SBS#897 = target: T22, ZFP SBS#897 (synthetic)
T22 chain: T5 chain with E20R, K21S, A22D, N23A, T25A, E81N, R82L, K83V
In short: as §1

ZFP SBS#884 = target: T23, ZFP SBS#884 (synthetic)
T23 chain: T5 chain with E20R, K21S, A22D, N23S, E81N, R82L, K83V
In short: as §1

ZFP SBS#817 = target: T24, ZFP SBS#817 (synthetic)
T24 chain: T5 chain with E20R, K21S, A22D, N23S, E81N, R82L, K83A
In short: as §1

ZFP SBS#801 = ZFP SBS#801 (synthetic)
In short: as §1

ZFP SBS#669 = target: T25, ZFP SBS#669 (synthetic)
T25 chain: T21 chain with A51S, T53N, R55A, R78D, S79R, D80S, T81N, K83T, K84R
In short: as §1

Chain of ZFP SBS#801 (synthetic) (chain, as listed by the source): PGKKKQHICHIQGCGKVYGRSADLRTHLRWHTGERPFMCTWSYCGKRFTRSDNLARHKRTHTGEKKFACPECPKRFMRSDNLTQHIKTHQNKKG
Chain of ZFP SBS#662 (P08047 other isoform, or with tags, fused parts or gaps): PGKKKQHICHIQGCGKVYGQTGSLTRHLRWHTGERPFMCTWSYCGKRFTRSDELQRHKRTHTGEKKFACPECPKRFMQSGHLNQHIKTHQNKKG
Chain of ZFP SBS#673 (synthetic) (chain, as listed by the source): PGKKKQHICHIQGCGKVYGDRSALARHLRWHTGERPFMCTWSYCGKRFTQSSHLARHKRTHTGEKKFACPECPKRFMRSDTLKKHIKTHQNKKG

B1: TCAGTGGTAT (dsDNA)
DNA 1: TCAGTGGTAT
DNA 2: ATACCACTGA
ZFP SBS#894
  Kd: 6.15 nM
ZFP SBS#887
  Kd: 23.8 nM
ZFP SBS#891
  Kd: 18.5 nM
ZFP SBS#888
  Kd: 14 nM

B2: GCGGAGGACC (dsDNA)
DNA 1: GCGGAGGACC
DNA 2: GGTCCTCCGC
ZFP SBS#828
  Kd: 0.1 nM
ZFP SBS#829
  Kd: 0.52 nM

B3: GCGGGTGTCT (dsDNA)
DNA 1: GCGGGTGTCT
DNA 2: AGACACCCGC
ZFP SBS#673
  Kd: 48.3 nM

B4: CAGGCTGTGG (dsDNA)
DNA 1: CAGGCTGTGG
DNA 2: CCACAGCCTG
ZFP SBS#850
  Kd: 17 nM

B5: GCGGGGTCCG (dsDNA)
DNA 1: GCGGGGTCCG
DNA 2: CGGACCCCGC
ZFP SBS#738
  Kd: 120 nM

B6: GAGGTGGGCT (dsDNA)
DNA 1: GAGGTGGGCT
DNA 2: AGCCCACCTC
ZFP SBS#842
  Kd: 5.4 nM

B7: GACGTGGAGG (dsDNA)
DNA 1: GACGTGGAGG
DNA 2: CCTCCACGTC
ZFP SBS#670
  Kd: 0.57 nM

B8: TCGGACGAGT (dsDNA)
DNA 1: TCGGACGAGT
DNA 2: ACTCGTCCGA
ZFP SBS#671
  Kd: 64 nM

B9: GAATGGGCAG (dsDNA)
DNA 1: GAATGGGCAG
DNA 2: CTGCCCATTC
ZFP SBS#825
  Kd: 37.3 nM
ZFP SBS#818
  Kd: 167 nM

B10: GAGTCGGACG (dsDNA)
DNA 1: GAGTCGGACG
DNA 2: CGTCCGACTC
ZFP SBS#667
  Kd: 50 nM

B11: TCGGACGTGG (dsDNA)
DNA 1: TCGGACGTGG
DNA 2: CCACGTCCGA
ZFP SBS#672
  Kd: 24 nM

B12: GGGGAGGCCC (dsDNA)
DNA 1: GGGGAGGCCC
DNA 2: GGGCCTCCCC
ZFP SBS#836
  Kd: 24.2 nM
ZFP SBS#848
  Kd: 49.5 nM

B13: TAGGGAGCGT (dsDNA)
DNA 1: TAGGGAGCGT
DNA 2: ACGCTCCCTA
ZFP SBS#835
  Kd: 150 nM
ZFP SBS#847
  Kd: 150 nM

B14: GCAGCGGCTC (dsDNA)
DNA 1: GCAGCGGCTC
DNA 2: GAGCCGCTGC
ZFP SBS#804
  Kd: 82.5 nM
ZFP SBS#803
  Kd: 57.5 nM

B15: AGAGCGGCAC (dsDNA)
DNA 1: AGAGCGGCAC
DNA 2: GTGCCGCTCT
ZFP SBS#662
  Kd: 50 nM
ZFP SBS#663
  Kd: 115 nM
ZFP SBS#664
  Kd: 125 nM

B16: GTGGAGGCCA (dsDNA)
DNA 1: GTGGAGGCCA
DNA 2: TGGCCTCCAC
ZFP SBS#668
  Kd: 1.13 nM

B17: GCGGCGTCGG (dsDNA)
DNA 1: GCGGCGTCGG
DNA 2: CCGACGCCGC
ZFP SBS#674
  Kd: 27.5 nM

B18: GAGGAGGTGA (dsDNA)
DNA 1: GAGGAGGTGA
DNA 2: TCACCTCCTC
ZFP SBS#897
  Kd: 0.07 nM
ZFP SBS#884
  Kd: 0.15 nM
ZFP SBS#817
  Kd: 0.31 nM

B19: AAGGAGTCGC (dsDNA)
DNA 1: AAGGAGTCGC
DNA 2: GCGACTCCTT
ZFP SBS#801
  Kd: 0.85 nM

B20: GACGAGTCGG (dsDNA)
DNA 1: GACGAGTCGG
DNA 2: CCGACTCGTC
ZFP SBS#669
  Kd: 90 nM
